Test results: paper PMC9482650, “Quantitative fragmentomics allow affinity mapping of interactomes” (Nature Communications, 2022)
Each block holds one binder with its values, some of them ahead of it.

Experiments:
Assay in all cases: holdup assay
Design in all cases: key: below the threshold = too weak to quantify, mostly under pKd 3.1 to 4
NHERF3_4, Q5T2W1 = target: T1, NHERF3_4, Q5T2W1
T1 sequence (Q5T2W1 373-468, limits assumed, looked up): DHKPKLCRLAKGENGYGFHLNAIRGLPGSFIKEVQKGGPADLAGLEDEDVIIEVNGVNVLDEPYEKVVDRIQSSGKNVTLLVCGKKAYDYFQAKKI

TJP2_1, Q9UDY2 = target: TJP2_1, Q9UDY2
Sequence of TJP2_1, Q9UDY2 (Q9UDY2 24-128): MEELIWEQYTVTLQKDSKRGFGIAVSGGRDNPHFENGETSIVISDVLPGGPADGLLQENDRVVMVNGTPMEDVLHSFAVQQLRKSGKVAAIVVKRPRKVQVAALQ

SNX27, Q96L92 = target: SNX27, Q96L92
LAP2, Q96RT1 = target: LAP2, Q96RT1
Sequence of LAP2, Q96RT1 (Q96RT1 other isoform, or with tags, fused parts or gaps): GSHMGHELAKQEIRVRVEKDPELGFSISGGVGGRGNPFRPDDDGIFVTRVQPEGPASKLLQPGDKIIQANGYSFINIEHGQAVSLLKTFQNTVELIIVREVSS

PDLIM1, O00151 = target: PDLIM1, O00151
Sequence of PDLIM1, O00151 (O00151 1-87): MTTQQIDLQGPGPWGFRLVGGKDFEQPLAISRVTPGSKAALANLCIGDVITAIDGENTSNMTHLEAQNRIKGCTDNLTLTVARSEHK

MPDZ_10, O75970 = target: T2, MPDZ_10, O75970
T2 sequence (O75970 1624-1722, limits assumed, looked up): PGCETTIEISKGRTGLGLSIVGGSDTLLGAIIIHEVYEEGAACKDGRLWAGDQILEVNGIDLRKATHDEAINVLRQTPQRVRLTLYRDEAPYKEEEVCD

NHERF2_2, Q15599 = target: NHERF2_2, Q15599
Sequence of NHERF2_2, Q15599 (Q15599 142-238): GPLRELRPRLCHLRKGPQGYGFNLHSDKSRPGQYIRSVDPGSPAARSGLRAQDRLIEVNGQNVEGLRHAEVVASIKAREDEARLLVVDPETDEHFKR

DLG3_1, Q92796 = target: T3, DLG3_1, Q92796
T3 sequence (Q92796 125-227, limits assumed, looked up): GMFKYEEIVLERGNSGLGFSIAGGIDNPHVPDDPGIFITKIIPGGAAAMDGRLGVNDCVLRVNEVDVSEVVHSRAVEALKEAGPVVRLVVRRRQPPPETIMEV

LIN7B, Q9HAP6 = target: T4, LIN7B, Q9HAP6
T4 sequence (Q9HAP6 88-185, limits assumed, looked up): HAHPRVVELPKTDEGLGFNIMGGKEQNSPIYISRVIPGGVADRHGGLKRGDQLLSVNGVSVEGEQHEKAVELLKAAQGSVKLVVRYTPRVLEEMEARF

DLG3_2, Q92796 = target: T5, DLG3_2, Q92796
T5 sequence (Q92796 221-321, limits assumed, looked up): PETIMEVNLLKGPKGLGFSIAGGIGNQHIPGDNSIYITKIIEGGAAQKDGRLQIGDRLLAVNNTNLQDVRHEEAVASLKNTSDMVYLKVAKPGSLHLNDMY

SIPA1L2, Q9P2F8 = target: T6, SIPA1L2, Q9P2F8
T6 sequence (Q9P2F8 945-1036, limits assumed, looked up): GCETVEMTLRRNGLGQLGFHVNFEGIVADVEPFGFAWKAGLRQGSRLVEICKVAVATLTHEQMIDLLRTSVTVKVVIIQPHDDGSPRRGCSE

PDZD2_2, O15018 = target: T7, PDZD2_2, O15018
T7 sequence (O15018 329-429, limits assumed, looked up): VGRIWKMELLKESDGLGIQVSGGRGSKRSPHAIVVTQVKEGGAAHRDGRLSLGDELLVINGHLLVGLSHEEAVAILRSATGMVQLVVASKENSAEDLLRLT

APBA1_1, Q02410 = target: T8, APBA1_1, Q02410
T8 sequence (Q02410 651-752, limits assumed, looked up): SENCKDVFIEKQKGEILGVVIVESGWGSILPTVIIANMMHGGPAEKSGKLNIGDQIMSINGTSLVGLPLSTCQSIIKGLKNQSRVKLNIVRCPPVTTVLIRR

Inadl_10, Q8NI35 = target: Inadl_10, Q8NI35
Sequence of Inadl_10, Q8NI35 (Q8NI35 1673-1763): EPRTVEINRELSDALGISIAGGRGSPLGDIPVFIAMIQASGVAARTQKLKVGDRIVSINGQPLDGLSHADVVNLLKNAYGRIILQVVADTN

NHERF4_1, Q86UT5-2 = target: NHERF4_1, Q86UT5-2
Sequence of NHERF4_1, Q86UT5-2 (Q86UT5 other isoform, or with tags, fused parts or gaps): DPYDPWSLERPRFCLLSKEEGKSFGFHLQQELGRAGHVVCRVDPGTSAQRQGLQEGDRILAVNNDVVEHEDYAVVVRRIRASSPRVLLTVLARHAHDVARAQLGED

Inadl_1, Q8NI35 = target: Inadl_1, Q8NI35
Sequence of Inadl_1, Q8NI35 (Q8NI35 113-229): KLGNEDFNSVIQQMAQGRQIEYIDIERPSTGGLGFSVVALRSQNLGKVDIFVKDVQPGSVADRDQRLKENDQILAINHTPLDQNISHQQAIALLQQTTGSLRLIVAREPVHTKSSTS

GRIP1_5, Q9Y3R0 = target: T9, GRIP1_5, Q9Y3R0
T9 sequence (Q9Y3R0 568-668, limits assumed, looked up): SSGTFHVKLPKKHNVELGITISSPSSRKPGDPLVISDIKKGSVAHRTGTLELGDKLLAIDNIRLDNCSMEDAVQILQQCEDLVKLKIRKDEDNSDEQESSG

NHERF4_4, Q86UT5 = target: NHERF4_4, Q86UT5
Sequence of NHERF4_4, Q86UT5 (Q86UT5 464-550): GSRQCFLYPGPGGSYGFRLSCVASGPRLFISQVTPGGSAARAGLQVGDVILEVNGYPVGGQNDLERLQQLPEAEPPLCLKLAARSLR

NHERF3_1, Q5T2W1 = target: T10, NHERF3_1, Q5T2W1
T10 sequence (Q5T2W1 4-100, limits assumed, looked up): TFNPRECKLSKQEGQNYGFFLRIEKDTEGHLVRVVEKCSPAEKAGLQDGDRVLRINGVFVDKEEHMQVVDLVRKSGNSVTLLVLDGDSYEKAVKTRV

PTPN3, P26045 = target: PTPN3, P26045
Sequence of PTPN3, P26045 (P26045 505-587): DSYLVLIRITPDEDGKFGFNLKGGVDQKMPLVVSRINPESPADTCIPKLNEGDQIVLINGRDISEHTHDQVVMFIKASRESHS

MPDZ_5, O75970 = target: T11, MPDZ_5, O75970
T11 sequence (O75970 695-796, limits assumed, looked up): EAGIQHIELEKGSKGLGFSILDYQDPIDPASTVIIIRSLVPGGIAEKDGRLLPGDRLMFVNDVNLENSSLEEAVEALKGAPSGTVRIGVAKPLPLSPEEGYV

PICK1, Q9NRD5 = target: PICK1, Q9NRD5
Sequence of PICK1, Q9NRD5 (Q9NRD5 17-115): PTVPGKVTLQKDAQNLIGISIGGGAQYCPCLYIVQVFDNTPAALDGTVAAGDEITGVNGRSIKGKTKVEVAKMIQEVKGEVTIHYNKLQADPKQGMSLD

FRMPD3, Q5JV73 = target: FRMPD3, Q5JV73
Sequence of FRMPD3, Q5JV73 (Q5JV73 12-100): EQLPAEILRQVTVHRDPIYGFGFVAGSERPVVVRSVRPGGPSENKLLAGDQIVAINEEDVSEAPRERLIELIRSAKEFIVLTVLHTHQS

DLG1_2, Q12959 = target: DLG1_2, Q12959
Sequence of DLG1_2, Q12959 (Q12959 314-412): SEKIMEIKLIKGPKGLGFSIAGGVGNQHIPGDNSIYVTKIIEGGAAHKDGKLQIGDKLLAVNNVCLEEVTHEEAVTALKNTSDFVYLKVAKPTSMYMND

FRMPD2_1, Q68DX3 = target: FRMPD2_1, Q68DX3
Sequence of FRMPD2_1, Q68DX3 (Q68DX3 770-861): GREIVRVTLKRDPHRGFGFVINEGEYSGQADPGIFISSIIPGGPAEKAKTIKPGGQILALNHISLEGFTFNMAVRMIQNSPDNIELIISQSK

TJP1_3, Q07157 = target: TJP1_3, Q07157
Sequence of TJP1_3, Q07157 (Q07157 416-512): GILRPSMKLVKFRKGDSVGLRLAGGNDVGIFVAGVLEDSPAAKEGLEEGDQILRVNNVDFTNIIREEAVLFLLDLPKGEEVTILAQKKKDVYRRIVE

MAGI2_6, Q86UL8 = target: MAGI2_6, Q86UL8
Sequence of MAGI2_6, Q86UL8 (Q86UL8 1141-1229): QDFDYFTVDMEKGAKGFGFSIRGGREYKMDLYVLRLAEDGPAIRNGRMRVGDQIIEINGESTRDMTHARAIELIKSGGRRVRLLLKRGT

[1] = plain residues with an end cap or a label only (N-terminal biotin on a linker: ado-ado)
[2] = plain residues with an end cap or a label only (N-terminal biotin on a linker: ttds)

pKd (NHERF3_4, Q5T2W1; [1]): below the threshold
pKd (TJP2_1, Q9UDY2; [1]): below the threshold
pKd (SNX27, Q96L92; [1]): 3.67
pKd (LAP2, Q96RT1; [1]): below the threshold
pKd (PDLIM1, O00151; [1]): below the threshold
pKd (MPDZ_10, O75970; [1]): 3.7
pKd (NHERF2_2, Q15599; [1]): below the threshold
pKd (DLG3_1, Q92796; [1]): below the threshold
pKd (LIN7B, Q9HAP6; [1]): below the threshold
pKd (DLG3_2, Q92796; [1]): below the threshold
pKd (SIPA1L2, Q9P2F8; [1]): below the threshold
pKd (PDZD2_2, O15018; [1]): below the threshold
pKd (APBA1_1, Q02410; [1]): below the threshold
pKd (Inadl_10, Q8NI35; [1]): below the threshold
pKd (NHERF4_1, Q86UT5-2; [1]): below the threshold
pKd (Inadl_1, Q8NI35; [1]): below the threshold
pKd (GRIP1_5, Q9Y3R0; [1]): below the threshold
pKd (NHERF4_4, Q86UT5; [1]): 3.67
pKd (NHERF3_1, Q5T2W1; [1]): below the threshold
pKd (PTPN3, P26045; [1]): below the threshold
pKd (MPDZ_5, O75970; [1]): below the threshold
pKd (PICK1, Q9NRD5; [1]): 4.21
pKd (FRMPD3, Q5JV73; [1]): below the threshold
pKd (DLG1_2, Q12959; [1]): below the threshold
pKd (FRMPD2_1, Q68DX3; [1]): below the threshold
pKd (TJP1_3, Q07157; [1]): below the threshold
pKd (MAGI2_6, Q86UL8; [1]): below the threshold
Binder: SQDPKKPSRV [CBY2, Q8NA61]

pKd (NHERF3_4, Q5T2W1; [2]): 3.72
pKd (TJP2_1, Q9UDY2; [2]): below the threshold
pKd (SNX27, Q96L92; [2]): 5
pKd (LAP2, Q96RT1; [2]): below the threshold
pKd (PDLIM1, O00151; [2]): below the threshold
pKd (MPDZ_10, O75970; [2]): below the threshold
pKd (NHERF2_2, Q15599; [2]): 4.09
pKd (DLG3_1, Q92796; [2]): 3.49
pKd (LIN7B, Q9HAP6; [2]): 3.86
pKd (DLG3_2, Q92796; [2]): 4.28
pKd (SIPA1L2, Q9P2F8; [2]): below the threshold
pKd (PDZD2_2, O15018; [2]): below the threshold
pKd (APBA1_1, Q02410; [2]): below the threshold
pKd (Inadl_10, Q8NI35; [2]): below the threshold
pKd (NHERF4_1, Q86UT5-2; [2]): 3.85
pKd (Inadl_1, Q8NI35; [2]): below the threshold
pKd (GRIP1_5, Q9Y3R0; [2]): below the threshold
pKd (NHERF4_4, Q86UT5; [2]): below the threshold
pKd (NHERF3_1, Q5T2W1; [2]): 5.56
pKd (PTPN3, P26045; [2]): 4.93
pKd (MPDZ_5, O75970; [2]): below the threshold
pKd (PICK1, Q9NRD5; [2]): below the threshold
pKd (FRMPD3, Q5JV73; [2]): below the threshold
pKd (DLG1_2, Q12959; [2]): 4.71
pKd (FRMPD2_1, Q68DX3; [2]): below the threshold
pKd (TJP1_3, Q07157; [2]): below the threshold
pKd (MAGI2_6, Q86UL8; [2]): 3.89
Binder: GARVSKETPL [MAPK12, P53778]

pKd (NHERF3_4, Q5T2W1; [2]): below the threshold
pKd (TJP2_1, Q9UDY2; [2]): below the threshold
pKd (SNX27, Q96L92; [2]): 5.15
pKd (LAP2, Q96RT1; [2]): below the threshold
pKd (PDLIM1, O00151; [2]): 3.52
pKd (MPDZ_10, O75970; [2]): below the threshold
pKd (NHERF2_2, Q15599; [2]): 5.39
pKd (DLG3_1, Q92796; [2]): below the threshold
pKd (LIN7B, Q9HAP6; [2]): below the threshold
pKd (DLG3_2, Q92796; [2]): below the threshold
pKd (SIPA1L2, Q9P2F8; [2]): below the threshold
pKd (PDZD2_2, O15018; [2]): 4
pKd (APBA1_1, Q02410; [2]): below the threshold
pKd (Inadl_10, Q8NI35; [2]): below the threshold
pKd (NHERF4_1, Q86UT5-2; [2]): below the threshold
pKd (Inadl_1, Q8NI35; [2]): below the threshold
pKd (GRIP1_5, Q9Y3R0; [2]): below the threshold
pKd (NHERF4_4, Q86UT5; [2]): below the threshold
pKd (NHERF3_1, Q5T2W1; [2]): 4.5
pKd (PTPN3, P26045; [2]): 3.85
pKd (MPDZ_5, O75970; [2]): below the threshold
pKd (PICK1, Q9NRD5; [2]): below the threshold
pKd (FRMPD3, Q5JV73; [2]): 3.6
pKd (DLG1_2, Q12959; [2]): below the threshold
pKd (FRMPD2_1, Q68DX3; [2]): below the threshold
pKd (TJP1_3, Q07157; [2]): below the threshold
pKd (MAGI2_6, Q86UL8; [2]): below the threshold
Binder: DLDEEEDTHL [PODXL, O00592]
